Laboratory results reported in PMC4499801, “Resolving single membrane fusion events on planar pore-spanning membranes” (Scientific Reports, 2015).
Primed or numbered codes have the meaning given here. Where no end group is shown, it is not given here. PEG12′ = PEG spacer of 12 units between cholesterol and peptide

T1: cholesterol-PEG12-(EIAALEK)4 (cholesterol-PEG12 anchor, as printed: cholesterol-PEG12-(EIAALEK)4)
T1 construct: printed as (EIAALEK)4, written out four times; coiled coil forming lipidated peptide; also called SNARE fusion mimetic; lipopeptide; source: reconstituted into pore-spanning membranes
T1 peptide: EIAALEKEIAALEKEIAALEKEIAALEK

B1: synaptobrevin 2 (residues 49-96, soluble C-terminal fragment) (domain or fragment, Rattus norvegicus, UniProt P63045 49-96, looked up)
chain: NVDKVLERDQKLSELDDRADALQAGASQFETSAAKLKRKYWWKNLKMM
notes: synaptobrevin 2, Rattus norvegicus, residues 49-96; also called C-terminal soluble fragment of synaptobrevin 2 (residues 49-96); soluble fragment of synaptobrevin 2; source: E. coli BL21(DE3), pET28a, purified (Ni-NTA, MonoS)
B2: cholesterol-PEG12-(KIAALKE)4 (peptide)
peptide: {cholesterol-PEG12′}-KIAALKEKIAALKEKIAALKEKIAALKE
notes: printed as (KIAALKE)4, written out four times; coiled coil forming lipidated peptide; also called SNARE fusion mimetic; lipopeptide; source: reconstituted into large unilamellar vesicles

Tests used:
[1] = molecular target: T2, syntaxin 1A (residues 183-288) (Rattus norvegicus, UniProt P32851 183-288); experiment: assembly of the complex from purified proteins and purification by ion exchange chromatography (MonoQ); three purified proteins mixed with an excess of SNAP25a (1:1:1.5) in 1% CHAPS, over night at 7 °C, complex purified by MonoQ; conditions: both partners purified
T2 construct: syntaxin 1A, Rattus norvegicus, residues 183-288; source: E. coli BL21(DE3), pET28a, purified (Ni-NTA, MonoQ, 1% CHAPS); also reconstituted alone into pore-spanning membranes

[2] = molecular target: T1, cholesterol-PEG12-(EIAALEK)4; experiment: single vesicle docking on planar pore-spanning membranes (two color confocal fluorescence microscopy); target reconstituted in pore-spanning membranes (DOPC/POPE/POPS/cholesterol 5:2:1:2, 1,000:1, Oregon Green DHPE), binder in Texas Red DHPE doped LUVs (1,000:1, 325 nm); buffer A (20 mM HEPES, 100 mM KCl, 1 mM DTT, pH 7.4); time series of 300 s; conditions: both partners purified

T2 sequence (P32851 183-288): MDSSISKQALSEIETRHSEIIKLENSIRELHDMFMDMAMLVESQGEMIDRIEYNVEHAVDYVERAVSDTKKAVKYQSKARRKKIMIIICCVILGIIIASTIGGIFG

Row | Binder | binding result [1] | binding result [2]
1 | B1 | binds | –
2 | B2 | – | binds
